These results are taken from paper PMC4547976.

The target of one assay is T1, myostatin (MSTN) (UniProt O14793).
T1 sequence: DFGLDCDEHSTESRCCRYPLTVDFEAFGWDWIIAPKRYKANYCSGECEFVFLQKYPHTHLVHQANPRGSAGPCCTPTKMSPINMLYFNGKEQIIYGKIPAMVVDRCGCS

The target in the next assay is activin A (UniProt P08476).
The next assay addresses T2, GDF11 (UniProt O95390).
T2 sequence: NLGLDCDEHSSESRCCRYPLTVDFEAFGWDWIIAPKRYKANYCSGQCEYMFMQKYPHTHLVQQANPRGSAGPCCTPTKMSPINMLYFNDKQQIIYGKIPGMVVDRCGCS

UniProt P08476, sequence (P08476 311-426): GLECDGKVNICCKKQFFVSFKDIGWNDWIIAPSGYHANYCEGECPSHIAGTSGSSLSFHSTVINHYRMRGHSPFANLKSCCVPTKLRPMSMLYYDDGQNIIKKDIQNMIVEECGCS

On to “MBP-NDFSD1 (chicken follistatin N-terminal domain and FSD1 fused to maltose-binding protein) (domain or fragment)”, for which the IC50 of suppression of 1 nM MSTN activity, pGL3-(CAGA)12 luciferase reporter in HEK293 cells (180-0 nM FST-type protein) with myostatin (MSTN) was 68.9 nM. Moreover, the IC50 of suppression of 1 nM activin A activity, pGL3-(CAGA)12 luciferase reporter in HEK293 cells (180-0 nM FST-type protein) with activin A was 15.3 nM. The IC50 of suppression of 1 nM GDF11 activity, pGL3-(CAGA)12 luciferase reporter in HEK293 cells (180-0 nM FST-type protein) with GDF11 came to 57.9 nM.

With “MBP-FST288 (chicken follistatin FST288 fused to maltose-binding protein) (natural protein)”, the IC50 of suppression of 1 nM MSTN activity, pGL3-(CAGA)12 luciferase reporter in HEK293 cells (180-0 nM FST-type protein) with myostatin (MSTN) is 2.01 nM. In addition, the IC50 of suppression of 1 nM activin A activity, pGL3-(CAGA)12 luciferase reporter in HEK293 cells (180-0 nM FST-type protein) in the assay with activin A is 3.96 nM. The same substance registered an IC50 of suppression of 1 nM GDF11 activity, pGL3-(CAGA)12 luciferase reporter in HEK293 cells (180-0 nM FST-type protein) in the assay with GDF11 of 1.64 nM.

“MBP-FST315 (MBP-fused chicken follistatin FST315) (from UniProt Q90844 29-343) (natural protein)” had an IC50 of suppression of 1 nM MSTN activity, pGL3-(CAGA)12 luciferase reporter in HEK293 cells in the assay with myostatin (MSTN) of 4.81 nM. In the assay with GDF11, the IC50 of suppression of 1 nM GDF11 activity, pGL3-(CAGA)12 luciferase reporter in HEK293 cells turned out to be 6.35 nM.

As to “MBP-NDFSD1/1 (chicken follistatin N-terminal domain, FSD1 and a second FSD1 fused to maltose-binding protein) (domain or fragment)”, the IC50 of suppression of 1 nM MSTN activity, pGL3-(CAGA)12 luciferase reporter in HEK293 cells (180-0 nM FST-type protein) with myostatin (MSTN) amounted to 64 nM. In the assay with GDF11, this substance returned an IC50 of suppression of 1 nM GDF11 activity, pGL3-(CAGA)12 luciferase reporter in HEK293 cells (180-0 nM FST-type protein) of 26.2 nM.

“MBP-NDFSD1/2 (chicken follistatin N-terminal domain, FSD1 and FSD2 fused to maltose-binding protein) (domain or fragment)” had an IC50 of suppression of 1 nM MSTN activity, pGL3-(CAGA)12 luciferase reporter in HEK293 cells (180-0 nM FST-type protein) in the assay with myostatin (MSTN) of 10.5 nM. This substance also came in with an IC50 of suppression of 1 nM activin A activity, pGL3-(CAGA)12 luciferase reporter in HEK293 cells (180-0 nM FST-type protein) with activin A of 8.59 nM. This substance came in with an IC50 of suppression of 1 nM GDF11 activity, pGL3-(CAGA)12 luciferase reporter in HEK293 cells (180-0 nM FST-type protein) with GDF11 of 3.56 nM.
